Reference: patent US7560245B2, “Luciferase and methods for measuring intracellular ATP using the same” (Kikkoman Corporation, priority 1997, dated 2009)
Numbering of substitutions follows the chain as printed. “And” between values parts separate entries of the source, which are not always exact repeats. Identical values can stand only once.

B1: HIK: Polypeptide of SEQ ID NO:6; HEIKE firefly luciferase with Ala217 substituted by Ile and Glu490 by Lys (protein, listed as Luciola lateralis)
chain: MENMENDENIVYGPEPFYPIEEGSAGAQLRKYMDRYAKLGAIAFTNALTGVDYTYAEYLEKSCCLGEALKNYGLVVDGRIALCSENCEEFFIPVLAGLFIGVGVAPTNEIYTLRELVHSLGISKPTIVFSSKKGLDKVITVQKTVTAIKTIVILDSKVDYRGYQSMDNFIKKNTPQGFKGSSFKTVEVNRKEQVALIMNSSGSTGLPKGVQLTHENIVTRFSHARDPIYGNQVSPGTAILTVVPFHHGFGMFTTLGYLTCGFRIVMLTKFDEETFLKTLQDYKCSSVILVPTLFAILNRSELLDKYDLSNLVEIASGGAPLSKEIGEAVARRFNLPGVRQGYGLTETTSAIIITPEGDDKPGASGKVVPLFKAKVIDLDTKKTLGPNRRGEVCVKGPMLMKGYVDNPEATREIIDEEGWLHTGDIGYYDEEKHFFIVDRLKSLIKYKGYQVPPAELESVLLQHPNIFDAGVAGVPDPIAGELPGAVVVLKKGKSMTEKEVMDYVASQVSNAKRLRGGVRFVDEVPKGLTGKIDGKAIREILKKPVAKM
B2: HLK: Polypeptide of SEQ ID NO:4; HEIKE firefly luciferase with Ala217 substituted by Leu and Glu490 by Lys (protein, listed as Luciola lateralis)
chain: B1 chain with I217L

Experiments:
[1] = Comparison of emission rate (remaining activity) with 0.4% benzalkonium chloride; format: biochemical; conditions: for Light emission (RLU) Without extraction reagent: 25 mM Tricine pH 7.75 instead of 0.4% benzalkonium chloride; for Light emission (RLU) Without extraction reagent / Light emission (RLU) With extraction reagent: 5 seconds waiting, 3 seconds measuring; for Light emission (RLU) With extraction reagent: 0.4% benzalkonium chloride
[2] = system: S. aureus ATCC 25923; assay: Detection of intracellular ATP, 0.25% BAC extraction reagent; format: cell-based, Staphylococcus aureus; conditions: for Relative ratio (%): TCA extraction method = 100%
Description: (§1) A standard technique used herein was TCA extraction method wherein intracellular ATP is extracted using trichloroacetic acid (TCA) and the amount of ATP extracted is measured using luciferin-luciferase luminescence reaction. TCA extraction method is excellent in extraction efficiency. Further in TCA extraction method no inhibition of luminescence reaction is caused by TCA because emission is measured after the sample containing TCA is diluted 1:100. Because of this dilution, however, TCA extraction method is complicated and can cause a decrease in the measuring sensitivity. Benzalkonium chloride (BAC, Japanese Pharmacopoeia) was used. ATP extraction reagent was prepared by dissolving this surfactant at 0.25% concentration into 25 mM Tricine (pH 7.75). Four strains, Escherichia coli (ATCC 25922), Staphylococcus aureus (ATCC 25923), Pseudomonas aeruginosa (ATCC 27853) and Enterococcus faecalis (ATCC 29212) were used. In standard techniques, a sample, undiluted solution, was prepared by culturing the prescribed microorganisms on a normal broth medium (produced by Eiken chemical Co., Ltd.) at 35° C. overnight. In the method of the present invention, a sample diluted solution was prepared by diluting an undiluted solution of the culture fluid to 1:100 with sterile water. Luminescence reagent was prepared by adding various luciferase to solution containing 0.15 mM luciferin, 6 mM EDTA, 15 mM magnesium acetate, 0.2 mM dithiothreitol, 0.5% BSA and 25 mM HEPES (pH 7.75). The amount of luciferase to be added was prepared such that the light emission produced when 100 μl of 2×10^−8 M ATP standard solution was added to 100 μl of the luminescence reagent would be the same amount of the light emission produced when a luminescence reagent attached to Luciferase LU (Kikkoman Corporation) was used. ATP extraction reagent 100 μl was added to 100 μl of a sample. The solution was allowed to stand for 20 seconds at room temperature. Then 100 μl of the luminescence reagent was added to this solution. Immediately after addition, the light emission was measured using Lumat LB-9501 produced by Berthold. 10% trichloro acetate solution 100 μl was added to 100 μl of a sample and the solution was allowed to stand for 1 minute. 25 mM Tricine (pH 7.75) 9.8 ml was added to this extract, and then the extract was well stirred. 25 mM Tricine (pH 7.75) and 100 μl of a luminescence reagent attached to CheckLite LU (produced by Kikkoman Corporation) were added to 100 µl of the sample. Immediately after addition, the light emission was measured using Lumat LB-9501 produced by Berthold. The relative ratio of the light emissions obtained by the use of the luminescence reagents using various luciferase types is also shown in these tables. Here the light emission obtained by the standard technique (TCA extraction method) was defined as 100%.

[3] = Surfactant resistance: change of light emission with time, 0.4% benzalkonium chloride; format: biochemical; conditions: for decay of light emission with time: FIG. 2 and 3
Description: (§2) Enzyme samples were obtained by preparing luciferase samples derived from various firefly species using enzyme-diluted solution (1 mM EDTA, 1 mM 2-mercaptoethanol, 5% glycerol, 50 mM HEPES, (pH7.5)) to achieve 0.5 MLU/ml concentration.
(§3) 50 μl of 0.4% benzalkonium chloride (25 mM Tricine at pH 7.75) and then 50 μl of the enzyme sample were added to 100 μl of substrate solution (4 mM ATP, 0.4 mM luciferin, 10 mM magnesium sulfate, 50 mM HEPES (pH 7.5)). After the solution was stirred for 5 seconds, the light emission was measured every second using Berthold Lumat LB-9501 for 1 minute.
Along the vertical axis in this figure, the relative ratio of the light emission was plotted with the initial amount of light emitted considered to be 100% upon use of 25 mM Tricine (pH 7.75) instead of 0.4% benzalkonium chloride.
(§4) To compare surfactant resistance of mutant luciferase with that of known luciferase, changes in emission with time were measured according to the aforementioned methods of measuring surfactant resistance.

[4] = Comparison of IC50: benzalkonium chloride concentration inactivating luciferase by 50%; format: biochemical; conditions: 10 minutes contact at room temperature, 0.01 to 0.1% benzalkonium chloride
Description: Benzalkonium chloride and various luciferases were contacted with each other for 10 minutes. Then the benzalkonium chloride concentration (IC50), at which activity is inactivated by 50% was determined. Equal amounts of luciferase solution prepared at this concentration and 0.01 to 0.1% benzalkonium chloride were mixed, and then allowed to stand for 10 minutes at room temperature. Subsequently, 100 μl of substrate solution was added to the mixture. Immediately after addition, the light emission was measured using Berthold Lumat LB-9501.

[5] = system: Escherichia coli, Staphylococcus aureus, Pseudomonas aeruginosa and Enterococcus faecalis; assay: Detection of intracellular ATP, summary over the four strains; format: cell-based; conditions: 0.25% BAC extraction reagent
Description: as §1, with “In standard techniques, a sample, undiluted solution, was prepared by culturing the prescribed microorganisms on a normal broth medium (produced by Eiken chemical Co., Ltd.) at 35° C. overnight. In the method of the present invention, a sample diluted solution was prepared by diluting an undiluted solution of the culture fluid to 1:100 with sterile water.” left out, “ATP extraction reagent 100 μl was added to 100 μl of a sample. The solution was allowed to stand for 20 seconds at room temperature.” left out, “10% trichloro acetate solution 100 μl was added to 100 μl of a sample and the solution was allowed to stand for 1 minute. 25 mM Tricine (pH 7.75) 9.8 ml was added to this extract, and then the extract was well stirred.” left out, “Here the light emission obtained by the standard technique (TCA extraction method) was defined as 100%.” left out

[6] = system: E. coli ATCC 25922; assay: Detection of intracellular ATP, 0.25% BAC extraction reagent; format: cell-based, Escherichia coli; conditions: for Relative ratio (%): TCA extraction method = 100%
Description: as §1

[7] = system: E. faecalis ATCC 29212; assay: as above; format: cell-based, Enterococcus faecalis; conditions: for Relative ratio (%): TCA extraction method = 100%
Description: as §1

[8] = Comparison of emission rate (remaining activity) with 0.4% benzalkonium chloride; format: biochemical; conditions: emission with 0.4% benzalkonium chloride divided by control (25 mM Tricine)
Description: as §2, §3
The influence of the enzyme solution, substrate solution and benzalkonium chloride used when measuring change with time, on the measurement values taken under actual emission measurement conditions, was examined.
In addition, the emission rate (remaining activity) was calculated by dividing the light emission measured in the presence of 0.4% benzalkonium chloride by a control value. Here the control value was the light emission upon use of 25 mM Tricine at pH 7.75 instead of 0.4% benzalkonium chloride.

[9] = system: P. aeruginosa ATCC 27853; assay: Detection of intracellular ATP, 0.25% BAC extraction reagent; format: cell-based, Pseudomonas aeruginosa; conditions: for Relative ratio (%): TCA extraction method = 100%
Description: as §1

[10] = Surfactant resistance: change of light emission with time, 0.8% benzethonium chloride; format: biochemical; conditions: FIG. 4
Description: as §2
[…] After the solution was stirred for 5 seconds, the light emission was measured every second using Berthold Lumat LB-9501 for 1 minute.
as §4

Molecule	Light emission (RLU) Without extraction reagent [1]	Light emission (RLU) With extraction reagent [1]	luciferase activity (remaining) ([1]; in the presence of 0.1% benzalkonium chloride)	Measured value (RLU) [2]	Relative ratio (%) [2]	initial light emission ([3]; FIG. 2)	decay of light emission with time [3]	IC50 (benzalkonium chloride concentration at which activity is inactivated by 50%) [4]	emission of the luminescence reagent [5]	Measured value (RLU) [6]	Relative ratio (%) [6]	Measured value (RLU) [7]	Relative ratio (%) [7]	Emission rate (remaining activity) [8]	Measured value (RLU) [9]	Relative ratio (%) [9]	decay of light emission with time [10]	improvement of initial light emission ([3]; compared with HEIKE L mutant, FIG. 3)
North American firefly: luciferase derived from North American firefly, a commercial product (Sigma, L-9506) [reference compound]	452563 RLU	97790 RLU	about 20%	163 RLU	(0.1) %	low in the initial light emission	decayed rapidly	0.014%	No emission was observed	153 RLU	(0.1) %	113 RLU	(0.1) %	21.6%	553 RLU	(0.3) %		
B1	386429 RLU	345159 RLU		76533 RLU	(58.8) %		decayed more slowly than that of the HEIKE I mutant	0.032%	more intense than that from wild-type HEIKE luciferase and thermostable luciferase	97073 RLU	(73.1) %	7914 RLU	(63.7) %	89.3%	131134 RLU	(78.0) %	more slowly than that of HEIKE I mutant	
B2	390289 RLU	396764 RLU		72182 RLU	(55.4) %		slower decay in the light emission	0.035%	more intense than that from wild-type HEIKE luciferase and thermostable luciferase	87981 RLU	(66.3) %	7998 RLU	(64.4) %	101.7% and ~100%	131815 RLU	(78.4) %	slower decay in light emission than that of HEIKE L mutant	about 20%
